These results are taken from US20240010722A1 (published 2024).

Holding throughout (test): BLI (Octet), binder on anti-human Fc tips
The target of assay [1] is T1, human MAdCAM (human, UniProt Q13477 19-317, limits assumed).
T1 construct: also called huMAdCAM; human MAdCAM-1
T1 sequence (looked up): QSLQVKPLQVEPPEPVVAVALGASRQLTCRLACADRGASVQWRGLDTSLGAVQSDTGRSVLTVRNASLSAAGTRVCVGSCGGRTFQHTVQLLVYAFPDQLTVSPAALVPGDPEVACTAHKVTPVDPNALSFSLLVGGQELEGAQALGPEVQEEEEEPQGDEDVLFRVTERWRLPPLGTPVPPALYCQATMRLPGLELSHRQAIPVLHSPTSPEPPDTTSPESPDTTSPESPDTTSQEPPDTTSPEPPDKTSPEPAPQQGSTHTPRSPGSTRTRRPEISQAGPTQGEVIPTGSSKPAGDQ

Assay [2] addresses T2, mouse MAdCAM (mouse, UniProt Q61826 22-365, limits assumed).
T2 construct: also called mouse MAdCAM-1; muMAdCAM
T2 sequence (looked up): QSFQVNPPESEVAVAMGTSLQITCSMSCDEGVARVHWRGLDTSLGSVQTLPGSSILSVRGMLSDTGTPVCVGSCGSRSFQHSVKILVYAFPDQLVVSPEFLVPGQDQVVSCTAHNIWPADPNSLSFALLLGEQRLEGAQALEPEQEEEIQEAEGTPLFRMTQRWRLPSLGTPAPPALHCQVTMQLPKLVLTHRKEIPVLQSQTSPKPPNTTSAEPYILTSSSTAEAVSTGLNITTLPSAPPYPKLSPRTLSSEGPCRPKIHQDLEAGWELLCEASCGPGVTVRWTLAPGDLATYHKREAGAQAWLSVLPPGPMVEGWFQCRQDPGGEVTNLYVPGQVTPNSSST

Assay [3] concerns the target T3, cyno MAdCAM (cynomolgus).
T3 construct: also called cynomolgus MAdCAM

B1: MIAB12 (antibody, V domains shown)
VH: EVQLLESGGGLVQPGGSLRLSCAASGFTFDDYAMHWVRQAPGKGLEWVASITSSSAFIDYADSVKGRFTISRDNSKNTLYLQMNSLRAEDTAVYYCARERVDWNSYFDLWGQGTLVTVSS
VL: EIVMTQSPATLSVSPGERATLSCRACPGISNSYLAWYQQKPGQAPRLLIYGASTRATGIPARFSGSGSGTEFTLTISSLQSEDFAVYYCQQYYTYPPTFGQGTKVEIK
notes: tested with human Fc
On to B1, for which the equilibrium dissociation constant (Kd) in assay [1] came to 19.3 nM; in assay [2] it was 77.5 nM; in assay [3], 19.5 nM.

B2: MIAB208 (antibody, V domains shown)
VH: EVQLLESGGGLVQPGGSLRLSCAASGFTFDDYAMHWVRQAPGKGLEWVASITSSSAFIDYADSVKGRFTISRDNSKNTLYLQMNSLRAEDTAVYYCARERVDWNSYFDLWGQGTLVTVSS
VL: EIVMTQSPATLSVSPGERATLSCRASQSVYSNLAWYQQKPGQAPRLLIYDASTRATGIPARFSGSGSGTEFTLTISSLQSEDFAVYYCQQYHIWPPTFGQGTKVEIK
notes: tested with human Fc
As for B2, the dissociation constant Kd was 20.2 nM in assay [1], 75.1 nM in assay [2] and 142 nM in assay [3].

B3: MIAB25 (antibody, V domains shown)
VH: EVQLLESGGGLVQPGGSLRLSCAASGFIFDDYAMHWVRQAPGKGLEWVASITSSSAFIDYADSVKGRFTISRDNSKNTLYLQMNSLRAEDTAVYYCARERVDWFSYFDLWGQGTLVTVSS
VL: EIVMTQSPATLSVSPGERATLSCRASQSVSNNLVWYQQKPGQAPRLLIYDASTRATGIPARFSGSGSGTEFTLTISSLQSEDFAVYYCQQYSHWPPTFGQGTKVEIK
notes: tested with human Fc
As to B3, the dissociation constant (Kd) in assay [1] turned out to be 46.9 nM; in assay [2], 131 nM; in assay [3] it was 60.8 nM.

B4: MIAB207 (antibody, V domains shown)
VH: EVQLLESGGGLVQPGGSLRLSCAASGFTFDDYAMHWVRQAPGKGLEWVASITSSSAFIDYADSVKGRFTISRDNSKNTLYLQMNSLRAEDTAVYYCARERVDWNSYFDLWGQGTLVTVSS
VL: EIVMTQSPATLSVSPGERATLSCRASQSVYSNLVWYQQKPGQAPRLLIYRASTRATGIPARFSGSGSGTEFTLTISSLQSEDFAVYYCQQYHIWPPTFGQGTKVEIK
notes: tested with human Fc
B4: the dissociation constant Kd in assay [1] turned out to be 83.5 nM; in assay [2] it was 24 nM; in assay [3], 73.7 nM.

B5: MIAB26 (antibody, V domains shown)
VH: EVQLLESGGGLVQPGGSLRLSCAASGFTFDDYAMHWVRQAPGKGLEWVASITSSSAFIDYADSVKGRFTISRDNSKNTLYLQMNSLRAEDTAVYYCARERVDWNSYFDLWGQGTLVTVSS
VL: EIVMTQSPATLSVSPGERATLSCRASQSVYSNLAWYQQKPGQAPRLLIYRASTRATGIPARFSGSGSGTEFTLTISSLQSEDFAVYYCQQYHIWPPTFGQGTKVEIK
notes: tested with human Fc
B5: the Kd was 49.1 nM in assay [1], 9.9 nM in assay [2] and 78.5 nM in assay [3].

B6: MIAB122 (antibody, V domains shown)
VH: EVQLLESGGGLVQPGGSLRLSCAASGFIFDDYAMHWVRQAPGKGLEWVASITSSSAFIDYADSVKGRFTISRDNSKNTLYLQMNSLRAEDTAVYYCARERVDWFSYFDLWGQGTLVTVSS
VL: EIVMTQSPATLSVSPGERATLSCRACPSVSNNYLVWYQQKPGQAPRLLIYDASTRATGIPARFSGSGSGTEFTLTISSLQSEDFAVYYCQQYSHWPPTFGQGTKVEIK
notes: tested with human Fc
Turning to B6, the dissociation constant Kd was 48.2 nM in assay [1], 130 nM in assay [2] and 68.5 nM in assay [3].

B7: MIAB13 (antibody, V domains shown)
VH: EVQLLESGGGLVQPGGSLRLSCAASGFTFDDYAMHWVRQAPGKGLEWVASITSSSAFIDYADSVKGRFTISRDNSKNTLYLQMNSLRAEDTAVYYCARERVLWNSYFDLWGQGTLVTVSS
VL: EIVMTQSPATLSVSPGERATLSCRASQNVNNNLAWYQQKPGQAPRLLIYDATTRATGIPARFSGSGSGTEFTLTISSLQSEDFAVYYCQQYYHWPQTFGQGTKVEIK
notes: tested with human Fc
On to B7, for which the equilibrium dissociation constant (Kd) was found to be 45.9 nM in assay [1], 6.6 nM in assay [2] and 33.4 nM in assay [3].

B8: MIAB206 (antibody, V domains shown)
VH: EVQLLESGGGLVQPGGSLRLSCAASGFTFDDYAMHWVRQAPGKGLEWVASITSSSAFIDYADSVKGRFTISRDNSKNTLYLQMNSLRAEDTAVYYCARERVDWYSYFDLWGQGTLVTVSS
VL: EIVMTQSPATLSVSPGERATLSCRASQSVYSNLAWYQQKPGQAPRLLIYRASTRATGIPARFSGSGSGTEFTLTISSLQSEDFAVYYCQQYHIWPPTFGQGTKVEIK
notes: tested with human Fc
For B8, the figures for the Kd in assay [1], in assay [2] and in assay [3] were 74.3 nM, 7.6 nM and 89.5 nM, respectively.

B9: MIAB209 (antibody, V domains shown)
VH: EVQLLESGGGLVQPGGSLRLSCAASGFTFDDYAMHWVRQAPGKGLEWVASITSSSAFIDYADSVKGRFTISRDNSKNTLYLQMNSLRAEDTAVYYCARERVDWNSYFDLWGQGTLVTVSS
VL: EIVMTQSPATLSVSPGERATLSCRASQSVYSNYLAWYQQKPGQAPRLLIYRASTRATGIPARFSGSGSGTEFTLTISSLQSEDFAVYYCQQYSHWPPTFGQGTKVEIK
notes: tested with human Fc
In the case of B9, the Kd in assay [1] came out at 61.1 nM; in assay [2], 35.2 nM; in assay [3], 99 nM.

B10: MIAB205 (antibody, V domains shown)
VH: EVQLLESGGGLVQPGGSLRLSCAASGFTFDDYAMHWVRQAPGKGLEWVASITSSSAFIDYADSVKGRFTISRDNSKNTLYLQMNSLRAEDTAVYYCARERVDWFSYFDLWGQGTLVTVSS
VL: EIVMTQSPATLSVSPGERATLSCRASQSVYSNLAWYQQKPGQAPRLLIYRASTRATGIPARFSGSGSGTEFTLTISSLQSEDFAVYYCQQYHIWPPTFGQGTKVEIK
notes: tested with human Fc
B10: the equilibrium dissociation constant (Kd) worked out at 56.3 nM in assay [1], 42.2 nM in assay [2] and 117 nM in assay [3].

B11: MIAB123 (antibody, V domains shown)
VH: EVQLLESGGGLVQPGGSLRLSCAASGFIFDDYAMHWVRQAPGKGLEWVASITSSSAFIDYADSVKGRFTISRDNSKNTLYLQMNSLRAEDTAVYYCARERVDWFSYFDLWGQGTLVTVSS
VL: EIVMTQSPATLSVSPGERATLSCRASQSVSNNYLVWYQQKPGQAPRLLIYDASTRATGIPARFSGSGSGTEFTLTISSLQSEDFAVYYCQQYSHWPPTFGQGTKVEIK
notes: tested with human Fc
B11: the Kd came to 39.7 nM in assay [1], 164 nM in assay [2] and 77.9 nM in assay [3].

B12: MIAB121 (antibody, V domains shown)
VH: EVQLLESGGGLVQPGGSLRLSCAASGFIFDDYAMHWVRQAPGKGLEWVASITSSSAFIDYADSVKGRFTISRDNSKNTLYLQMNSLRAEDTAVYYCARERVDWFSYFDLWGQGTLVTVSS
VL: EIVMTQSPATLSVSPGERATLSCRACPSVSNNLVWYQQKPGQAPRLLIYDASTRATGIPARFSGSGSGTEFTLTISSLQSEDFAVYYCQQYSHWPPTFGQGTKVEIK
notes: tested with human Fc
For B12, the equilibrium dissociation constant (Kd) in assay [1] was 50.4 nM; in assay [2], 117 nM; in assay [3] it was 92 nM.

One may read the Kd as a measure of binding affinity in units of concentration. Lower therefore signals a tighter complex.
